Experimental data: patent US20260374834 (published 2026)

T1: hIL-18Ra ECD-Fc (human, UniProt Q13478)
T1 chain: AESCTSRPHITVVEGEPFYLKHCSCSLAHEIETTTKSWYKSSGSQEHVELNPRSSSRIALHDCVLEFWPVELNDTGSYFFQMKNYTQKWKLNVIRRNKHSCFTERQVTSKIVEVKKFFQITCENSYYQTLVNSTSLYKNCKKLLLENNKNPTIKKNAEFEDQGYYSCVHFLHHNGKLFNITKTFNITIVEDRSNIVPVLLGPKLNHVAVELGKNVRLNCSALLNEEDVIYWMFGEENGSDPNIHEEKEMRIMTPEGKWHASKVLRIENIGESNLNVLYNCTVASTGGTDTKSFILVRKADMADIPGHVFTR


Target: T1, hIL-18Ra ECD-Fc
Assay: BLI

Row | Kd [nM] | Binder
1 | > 1000 | WM2 (designed binder) YFPKLRSKLSVIRNLNDQVLFIDQGNRPLFEDMTDSDCRDNAPRTIFIISMYKDSQPRGMAVTISVKCEKISTLSCENKIISFKEMNPPDNIKDTESDIIFFQRSVPGHDNKMQFESSSYEGYFLACEKERDLFKLILKKEDELGDRSIMFTVQNED
2 | > 1000 | WM8 (designed binder) YFPKLRSKLSVIRNLNDQVLFIDQGNRPLFEDMTDSDCRDNAPRTIFIISMYKDSQPRGMAVTISVKCEKISTLSCENKIISFKEMNPPDSIKDTKSDIIFFQRSVPGHDNKMQFESSSYEGYFLACEKERDLFKLILKKEDELGDRSIMFTVQNED
3 | > 1000 | M36 (designed binder) YFPKLSSKLSVIRNLNDQVLFIDQGNRPLFEDMTDSDCRDNAPRTIFIISMYKASDQRGMAVTISVKCEKISTLSCENKIISFKEMNPPDGIKDTKSDIIFFQRSVPGHDNKMQFESSSYEGYFLACEKERDLFKLILKKEDELGDRSIMFTVQNED
4 | > 1000 | M6 (designed binder) YFPKLRSKLSVIRNLNDQVLFIDQGNRPLFEDMTDSDCRDNAPRTIFIISMYKWSTPRGMAVTISVKCEKISTLSCENKIISFKEMNPPDVIKDTKSDIIFFQTSVPGHDNKMQFESSSYEGYFLACEKERDLFKLILKKEDELGDRSIMFTVQNED
